Patent CN101151278A

Columns and labels:
[1] = molecular target: 大鼠FcRn (rat) (UniProt P13599); test: BIAcore, FcRn on CM5 chip
[2] = molecular target: 人FcRn (human) (UniProt P55899); test: BIAcore, FcRn on CM5 chip, pH 6.0
[3] = molecular target: T1, CD20 on WIL2-S cells (human) (UniProt P11836); test: cell-based or functional assay
T1 sequence (looked up): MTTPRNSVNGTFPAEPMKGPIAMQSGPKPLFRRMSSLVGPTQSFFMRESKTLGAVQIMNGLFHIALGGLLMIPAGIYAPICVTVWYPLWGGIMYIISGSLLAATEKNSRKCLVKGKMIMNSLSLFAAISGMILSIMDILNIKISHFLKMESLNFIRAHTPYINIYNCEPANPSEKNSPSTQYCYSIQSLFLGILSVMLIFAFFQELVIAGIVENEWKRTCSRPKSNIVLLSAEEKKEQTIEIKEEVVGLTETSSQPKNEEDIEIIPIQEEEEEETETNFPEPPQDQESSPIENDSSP

Sequence of 人FcRn (human) (P55899 24-297 limits assumed, chain 1 of 2): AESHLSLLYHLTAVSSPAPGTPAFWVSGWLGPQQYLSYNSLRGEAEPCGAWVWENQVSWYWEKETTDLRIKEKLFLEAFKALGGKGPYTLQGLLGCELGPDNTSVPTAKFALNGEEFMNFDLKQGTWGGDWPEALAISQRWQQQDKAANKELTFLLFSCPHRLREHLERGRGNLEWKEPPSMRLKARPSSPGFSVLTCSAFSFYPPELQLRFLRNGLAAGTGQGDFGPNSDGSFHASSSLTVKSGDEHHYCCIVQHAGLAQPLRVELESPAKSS
Sequence of 人FcRn (human) (P61769 21-119 limits assumed, chain 2 of 2, further chain): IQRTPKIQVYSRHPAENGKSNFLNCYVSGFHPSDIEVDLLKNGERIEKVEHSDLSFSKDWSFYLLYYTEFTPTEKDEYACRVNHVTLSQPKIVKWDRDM
Sequence of 大鼠FcRn (rat) (P13599 23-298 limits assumed, chain 1 of 2): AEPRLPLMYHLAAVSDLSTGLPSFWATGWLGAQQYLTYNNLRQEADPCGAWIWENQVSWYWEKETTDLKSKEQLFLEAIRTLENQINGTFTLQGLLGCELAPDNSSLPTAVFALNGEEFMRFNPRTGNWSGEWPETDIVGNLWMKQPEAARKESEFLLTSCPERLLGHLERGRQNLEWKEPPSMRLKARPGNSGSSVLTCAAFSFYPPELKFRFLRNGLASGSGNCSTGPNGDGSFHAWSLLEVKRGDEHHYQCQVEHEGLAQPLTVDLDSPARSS
Sequence of 大鼠FcRn (rat) (P07151 21-119 limits assumed, chain 2 of 2, further chain): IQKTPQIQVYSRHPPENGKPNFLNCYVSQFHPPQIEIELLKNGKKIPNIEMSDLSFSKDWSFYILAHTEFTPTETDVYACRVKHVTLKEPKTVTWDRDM

Question: With “Fc变体 N434W (from UniProt P01857 114-330)” as the substance, how does the fold increase in binding vs wild-type Fc [1] read?
Answer: Its fold increase in binding vs wild-type Fc is 10 fold.

Question: Which fold increase in affinity vs wild-type Fc [2] does the source give for “Fc变体 N434A+E380A+T307A (from UniProt P01857 114-330) (other; other documents disagree on this pair)” here?
Answer: The fold increase in affinity vs wild-type Fc was 14 fold.

Question: With “Fc变体 N434F (from UniProt P01857 114-330) (other; other documents disagree on this pair)” as the substance, how does the fold increase in affinity vs wild-type Fc [2] read?
Answer: Its fold increase in affinity vs wild-type Fc is 9 fold.

Question: For Rituxan (antibody), which ADCC on WIL2-S cells with NK cells, EC50(变体)/EC50(2H7.v16) [3] is on record?
Answer: Its ADCC on WIL2-S cells with NK cells, EC50(变体)/EC50(2H7.v16) is 5.3.

Question: And the ADCC on WIL2-S cells with NK cells, EC50(变体)/EC50(Rituxan) [3]?
Answer: The ADCC on WIL2-S cells with NK cells, EC50(变体)/EC50(Rituxan) was 1.

Question: And the CDC on WIL2-S cells, EC50(变体)/EC50(Rituxan) [3]?
Answer: The CDC on WIL2-S cells, EC50(变体)/EC50(Rituxan) was 1.
